Changes are numbered by the printed parent chain. Like-named read-outs stand apart in the source and are kept apart here.
What was measured:
[1] = target: MPER peptide PDT-081 (HIV-1)
[2] = target: MPER peptide PDT-081 (HIV-1); test: BLI on PDT-081
[3] = target: MPER peptide PDT-081 (HIV-1); test: ELISA on PDT-081
[4] = target: MPER peptide PDT-081 (HIV-1); test: BLI (Octet RED96), Fab over biotinylated peptide on streptavidin sensors
[5] = target: MPER peptide PDT-081 (HIV-1); test: ELISA on MPER (654-683) peptide, antibody titrated

B1: H4K3_RS73PE Fab (Fab, V domains shown)
VH: KVQLVQSGAELKKPWSSVRVSCKASGGSFSSYAFNWVRQAPGQRLEWLGGIVPLVSSTNYAQRFRGRVTISADPETSTVYLEMTGLTSADTAVYFCAREGEGWFGRPLRAFEFWGQGTLVTVST
VL: EIVLTQSPGTFALSPGERATLSCRASQSVSGGALAWYQQKAGQAPRLLIYDTSGRATGVPGRFSGSGSETDFSLTISRLEPEDFAVYYCQQYGTSQSTFGQGTRLETR
- Kd [1]: 0.0128 µM
- Kd [2]: 0.0128 µM
- koff [2]: 0.00051 s⁻¹
- kon [2]: 39000 M⁻¹ s⁻¹

B2: H4K3_RS73PE (antibody, V domains shown)
VH: B1 VH
VL: B1 VL
- EC50 [3]: 0.09 mg/L
- Fold Increase (ELISA EC50 over H4K3) [3]: 2.3 fold

B3: PGZL1.H4K3 (antibody, V domains shown)
VH: B1 VH with P74R, E75S
VL: B1 VL with D51G
- EC50 [3]: 0.039 mg/L

B4: H4K3_SFS28EPE (antibody, V domains shown)
VH: B1 VH with S28E, F29P, S30E, P74R, E75S
VL: B1 VL
- EC50 [3]: 0.076 mg/L
- Fold Increase (ELISA EC50 over H4K3) [3]: 2 fold

B5: H4K3_SFS28EPE Fab (Fab, V domains shown)
VH: B1 VH with S28E, F29P, S30E, P74R, E75S
VL: B1 VL
- Kd [1]: 0.0151 µM
- Kd [2]: 0.0151 µM
- koff [2]: 0.00054 s⁻¹
- kon [2]: 36000 M⁻¹ s⁻¹

B6: PGZL1.H4K3 Fab (Fab, V domains shown)
VH: B1 VH with P74R, E75S
VL: B1 VL with D51G
- koff [2]: 0.00051 s⁻¹
- kon [2]: 68000 M⁻¹ s⁻¹
- Kd [4]: 0.0075 µM
- off rate faster than that of PGZL1 [4]: 8%
- on rate faster than that of PGZL1 [4]: 24%

B7: H4K3_5M Fab (Fab, V domains shown)
VH: B1 VH with S28E, F29P, S30E
VL: B1 VL
- Kd [1]: 0.0234 µM
- Kd [2]: 0.0234 µM
- koff [2]: 0.00067 s⁻¹
- kon [2]: 29000 M⁻¹ s⁻¹

B8: H4K3_5M (antibody, V domains shown)
VH: B1 VH with S28E, F29P, S30E
VL: B1 VL
- EC50 [3]: 0.083 mg/L
- Fold Increase (ELISA EC50 over H4K3) [3]: 2.1 fold

B9: PGZL1 (antibody, V domains shown)
VH: EVQLVQSGGEVKRPGSSVTVSCKATGGTFSTLAFNWVRQAPGQGPEWMGGIVPLFSIVNYGQKFQGRLTIRADKSTTTVFLDLSGLTSADTATYYCAREGEGWFGKPLRAFEFWGQGTVITVSS
VL: DVVMTQSPGTLSLSPGERATLSCRASQSVSGGALAWYQQKPGQAPRLLIYDTSSRPTGVPGRFSGSGSGTDFSLTISRLEPEDFAVYYCQQYGTSQSTFGQGTRLEIK
- EC50 (read off the curve) [5]: 0.02 mg/L

B10: PGZL1 Fab (Fab, V domains shown)
VH: B9 VH
VL: B9 VL
- Kd [4]: 0.0099 µM

— patent US20240124560A1
